# Measurements: patent US11760795B2, “Monoclonal antibodies to growth and differentiation factor 15 (GDF-15), and uses thereof for treating cancer cachexia and cancer” (JULIUS-MAXIMILIANS-UNIVERSITÄT WÜRZBURG, priority 2014, dated 2023)
# B1: mAb-B1-23: murine IgG2a (kappa) monoclonal anti-human GDF-15 antibody produced by hybridoma cell line B1-23, DSM ACC3142 (antibody, V domains shown)
# VH: QVKLQQSGPGILQSSQTLSLTCSFSGFSLSTSGMGVSWIRQPSGKGLEWLAHIYWDDDKRYNPTLKSRLTISKDPSRNQVFLKITSVDTADTATYYCARSSYGAMDYWGQGTSVTVSS
# VL: DIVLTQSPKFMSTSVGDRVSVTCKASQNVGTNVAWFLQKPGQSPKALIYSASYRYSGVPDRFTGSGSGTDFTLTISNVQSEDLAEYFCQQYNNFPYTFGGGTKLEIKRTVA
# Experiments:
# [1] = system: GDF-15 mediated downregulation of NKG2D on NK cells; assay: NKG2D surface expression on NK cells after GDF-15 treatment (flow cytometry); assay type: cell-based; details: 72 hours incubation
# Description: FIG. 1: NKG2D Expression on NK Cells after Treatment with or without GDF-15. The cell surface expression of NKG2D was determined on NK cells after treatment with the indicated cytokines in the presence or absence of the anti-GDF-15 antibody mAb B1-23.
# a) The NKG2D (Natural Killer Group 2D) receptor, which is expressed on NK cells and CD8+ T cells, is known to play an important role in the immune surveillance against tumors. Transformed as well as viral infected cells express ligands, which bind to the NKG2D receptor, thereby activating the cytotoxic effector functions of the described immune cells. In that way transformed cells can be detected and eliminated by the immune system.
# After 72 hours incubation the immune cells were stained with the following FACS-antibodies: anti CD3, anti CD56, anti-NKG2D. Using this antibody combination, the experiment focused on NK cells and their NKG2D surface expression. The low NKG2D level on immune cells led to an impaired tumor/target cell lysis. The GDF-15 mediated downregulation of NKG2D was prevented by mAb B1-23.
# [2] = system: melanoma cell line UACC-257; assay: UACC-257 melanoma xenograft tumor growth in nude mice; assay type: in vivo, Balb/c^nu/nu nude mice; details: 25 mg/kg i.p. twice a week; 48 days; p<0.05
# Description: FIG. 4: An anti-tumor effect of murine B1-23 in vivo. Balb/c^nu/nu nude mice were used in a xenograft setting with the melanoma cell line UACC-257. […] Significance was defined as p<0.05 as assessed by Wilcoxon's log-rank test.
# To assess an anti-tumor effect of B1-23 in viva, Balb/c^nu/nu nude mice were used in a xenograft setting with the melanoma cell line UACC-257. The mice were treated either with the antibody B1-23 or with PBS. Each treatment cohort contained 10 Balb/c^nu/nu nude mice.
# Prior to injection, the UACC-257 melanoma cells were grown in complete medium, excluding any contamination. […] Cells were then washed with PBS and counted. 1×10^7 viable cells were suspended in PBS.
# The first injection/treatment was administered in 6 week old Balb/c^nu/nu nude mice. The inoculation area of the mice was cleaned with ethanol. The UACC 257 cells were mixed and drawn into a syringe without a needle, in order to avoid negative pressure on the tumor cells. […]
# The intraperitoneal (i.p.) injection of either B1-23 (25 mg/kg body weight) or the same volume of PBS started immediately after the tumor cell inoculation (defined as day 1) and was administered twice a week. […] The tumor diameters were measured with a caliper and the tumor volume in mm^3 was calculated by the formula: Volume=(width)^2×length/2
# [3] = Protein A elution at physiological pH and 10 fold concentration via spin columns, turbidity; assay type: physicochemical; details: TRIS Buffer at physiological pH, from 0.5 mg/ml
# Description: FIG. 7: Improved solubility of the chimeric and the humanized antibody at physiological pH.
# 5 mg of antibody (B1-23, chimeric B1-23=“ChimB1-23”, H1L5) were loaded on Proteus™ protein A columns, eluted and collected in a TRIS Buffer at physiological pH. After elution, the quality of the purified antibodies was assessed by Coomassie Brilliant Blue gel analysis. The concentration of the eluted antibodies was measured photometrically as well as in a Bradford assay (Roti-Quant, Carl Roth, Karlsruhe, Germany). […] The antibodies were then 10 fold concentrated via spin columns (Centricon, MWCO 30). […] All concentrated eluates were then centrifuged for 5 min at 13000 rpm in order to precipitate antibody aggregates. The remaining amount of soluble antibodies was finally determined via Bradford assay from the supernatant.
molecule,measurement,setting,value
B1,GDF-15 mediated downregulation of NKG2D,[1],prevented
same,tumor size compared to the PBS control group,[2],significantly decreased
same,aggregation after 10 fold concentration,[3],presence of precipitates
